The results in this text go back to the supplement of paper PMC10567573.

A short description of this series: protein stability index of a GFP-peptide fusion (GPS, HEK-293T) (PSI 1-6); higher = more stable.
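Further: lentivirally expressed fusions sorted by FACS into six bins by GFP to DsRed ratio, PSI derived from sequencing read proportions per bin multiplied by bin number.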

B1: CLCN6 WT (peptide)
chain: FQSISLRKIQFNFPYFRSDRDKRD
On to B1, for which the protein stability index (parent: IOH52910_37, c terminus: a fixed tail appended) is 1.87.

B2: TOR1AIP2 WT (peptide)
chain: YTSSQKVSPIQIDGAGRTWQDSDT
For B2, the protein stability index (parent: IOH51997_54, c terminus: a fixed tail appended) was found to be 3.33.

B3: INTS4 WT (peptide)
chain: AKQIMEETYKMEFMYSGVENKQVV
Take B3: for the setting “parent: IOH53018_117, c terminus: a fixed tail appended”, the protein stability index was 1.69.

B4: ETS1 WT (peptide)
chain: FSEPSFITESYQTLHPISSEELLS
Take B4: the protein stability index (parent: IOH46473_30, c terminus: a fixed tail appended) was determined as 1.94.

B5: RTN2 WT (peptide)
chain: SERPLEDLRLRLDHLGWVARGTGS
Turning to B5, the protein stability index (parent: IOH53506_23, c terminus: a fixed tail appended) came to 2.32.

B6: TRIM63 WT (peptide)
chain: FRCPTCRHEVIMDRHGVYGLQRNL
With B6, the protein stability index (parent: IOH45956_13, c terminus: a fixed tail appended) was 1.95.

B7: SLC19A2 WT (peptide)
chain: FASLRPSEPFLTPYLLGPDKNLTE
As to B7, where the note is “parent: IOH52104_8, c terminus: a fixed tail appended”, the protein stability index came to 2.

B8: TOR1AIP2 WT (peptide)
chain: HHVADAYTSSQKVSPIQIDGAGRT
As for B8, for the setting “parent: IOH51997_53, c terminus: a fixed tail appended”, the protein stability index amounted to 3.46.

B9: HDAC6 WT (peptide)
chain: KMKTRELHRESSNFDSIYICPSTF
Consider B9, for which, where the note is “parent: IOH53646_93, c terminus: a fixed tail appended”, the protein stability index came to 2.14.

B10: CAMK2D WT (peptide)
chain: LLKHPNIVRLHDSISEEGFHYLVF
Regarding B10, the protein stability index (parent: IOH54032_12, c terminus: a fixed tail appended) is 2.28.

B11: TRIM63 WT (peptide)
chain: QEKKLSFIEALIQQYQEQLDKSTK
Take B11: the protein stability index (parent: IOH45956_40, c terminus: a fixed tail appended) was found to be 2.57.

B12: CDC14A WT (peptide)
chain: LWVQGDIFRSKLKNRPSSEGSINK
B12: for the setting “parent: IOH46617_56, c terminus: a fixed tail appended”, the protein stability index amounted to 2.28.

B13: SEPHS2 WT (peptide)
chain: KASGRFGLLQGTSAETSGGLLICL
With B13, the protein stability index (parent: IOH46138_60, c terminus: a fixed tail appended) came to 2.7.

B14: TRIM63 WT (peptide)
chain: ANPYWTSRGSSVSMSGGRFRCPTC
As to B14, the protein stability index (parent: IOH45956_10, c terminus: a fixed tail appended) came to 1.99.

B15: HDAC6 WT (peptide)
chain: DLMETTQYMNEGELRVLADTYDSV
Turning to B15, the protein stability index (parent: IOH53646_26, c terminus: a fixed tail appended) worked out at 2.05.

B16: TRIM63 WT (peptide)
chain: QRITQEQEKKLSFIEALIQQYQEQ
Consider B16, for which the protein stability index (parent: IOH45956_39, c terminus: a fixed tail appended) is 2.31.

B17: KLHL14 WT (peptide)
chain: NETGYLSSVECYNLETNEWRYVSS
For B17, the protein stability index (parent: IOH52486_73, c terminus: a fixed tail appended) came to 2.24.

B18: SLC19A2 WT (peptide)
chain: FHHIPSTCQRVNGIKVQNGGIVTD
As to B18, the protein stability index (parent: IOH52104_37, c terminus: a fixed tail appended) was determined as 1.8.

B19: TOR1AIP2 WT (peptide)
chain: AGQEGEDTLRRRLLAPEAGSHPQQ
On to B19, for which the protein stability index (parent: IOH51997_29, c terminus: a fixed tail appended) worked out at 2.33.

B20: INTS4 WT (peptide)
chain: TIIEPAGESDNPLRFTSGLVVALD
As for B20, the protein stability index (parent: IOH53018_138, c terminus: a fixed tail appended) was 2.83.

B21: KRT13 WT (peptide)
chain: YGGGLGGGFGGGFAGGFVDFGACD
As to B21, the protein stability index (parent: IOH51951_13, c terminus: a fixed tail appended) is 1.83.

B22: SNAP91 WT (peptide)
chain: FATASAAVPVSTSKPSSDLLDLQP
Consider B22, for which, under “parent: IOH52952_56, c terminus: a fixed tail appended”, the protein stability index came to 3.71.

B23: SNAP91 WT (peptide)
chain: FAAPSPATTASPAKVDSSGVIDLF
In the case of B23, the protein stability index (parent: IOH52952_104, c terminus: a fixed tail appended) was found to be 2.35.

B24: KLHL14 WT (peptide)
chain: WLYCYDPVMDVWARKQDMNTKRAI
As for B24, under “parent: IOH52486_82, c terminus: a fixed tail appended”, the protein stability index turned out to be 1.93.

B25: HDAC6 WT (peptide)
chain: ACAQLATGAACRLVEAVLSGEVLN
For the protein B25, where the note is “parent: IOH53646_97, c terminus: a fixed tail appended”, the protein stability index turned out to be 2.94.

B26: CLCN6 WT (peptide)
chain: VGEIVGIITRHNLTYEFLQARLRQ
For the protein B26, the protein stability index (parent: IOH52910_141, c terminus: a fixed tail appended) turned out to be 2.41.

B27: CLCN6 WT (peptide)
chain: TGLVGLFVDFFVRLFTQLKFGVVQ
For the protein B27, for the setting “parent: IOH52910_16, c terminus: a fixed tail appended”, the protein stability index was 2.3.

B28: ETS1 WT (peptide)
chain: YVRDRADLNKDKPVIPAAALAGYT
In the case of B28, the protein stability index (parent: IOH46473_52, c terminus: a fixed tail appended) is 2.15.

B29: HDAC6 WT (peptide)
chain: QEGLLDRCVSFQARFAEKEELMLV
For B29, where the note is “parent: IOH53646_21, c terminus: a fixed tail appended”, the protein stability index amounted to 1.78.

B30: POLD4 WT (peptide)
chain: ITDSYPVVKRREGPAGHSKGELAP
With B30, the protein stability index (parent: IOH45937_2, c terminus: a fixed tail appended) is 2.96.

B31: TOR1AIP2 WT (peptide)
chain: SPGHSSAGQEGEDTLRRRLLAPEA
On to B31, for which the protein stability index (parent: IOH51997_28, c terminus: a fixed tail appended) was 4.18.

B32: TOR1AIP2 WT (peptide)
chain: YKYCDHENAAFKDVALVLTVLLEE
On to B32, for which the protein stability index (parent: IOH51997_64, c terminus: a fixed tail appended) was 2.27.

B33: KLHL14 WT (peptide)
chain: CAVLDDSIYLVGGYSWSMGAYKSS
Turning to B33, the protein stability index (parent: IOH52486_95, c terminus: a fixed tail appended) was 2.2.

B34: TOR1AIP2 WT (peptide)
chain: DGAGRTWQDSDTVKLLVDLELSYG
As to B34, the protein stability index (parent: IOH51997_56, c terminus: a fixed tail appended) was 1.82.

B35: SNAP91 WT (peptide)
chain: FSTDAFSSPPQGASPVPESSLTAD
On to B35, for which the protein stability index (parent: IOH52952_99, c terminus: a fixed tail appended) worked out at 3.2.

B36: CDC14A WT (peptide)
chain: LNLAMVYRYCCKLNKKLKSYSLSR
Turning to B36, the protein stability index (parent: IOH46617_10, c terminus: a fixed tail appended) was determined as 2.15.

B37: CLCN6 WT (peptide)
chain: ILRSQLVTLLVRGVCYSESQSSAS
In the case of B37, the protein stability index (parent: IOH52910_125, c terminus: a fixed tail appended) was found to be 2.67.

B38: CDC14A WT (peptide)
chain: GPHPKSKIENGYPLHAPEAYFPYF
B38: the protein stability index (parent: IOH46617_33, c terminus: a fixed tail appended) is 2.25.

B39: KLHL14 WT (peptide)
chain: YVIGGRNETGYLSSVECYNLETNE
Turning to B39, the protein stability index (parent: IOH52486_72, c terminus: a fixed tail appended) came to 1.96.

B40: CLCN6 WT (peptide)
chain: MAGCRGSLCCCCRWCCCCGERETR
On to B40, for which the protein stability index (parent: IOH52910_1, c terminus: a fixed tail appended) was 1.87.

B41: INTS4 WT (peptide)
chain: YSSGEFSSGRKWGDDAPKEEVDTG
Regarding B41, the protein stability index (parent: IOH53018_58, c terminus: a fixed tail appended) was found to be 2.34.

B42: INTS4 WT (peptide)
chain: IRLVDDAFGKICHMVSDGSWVVRV
In the case of B42, the protein stability index (parent: IOH53018_47, c terminus: a fixed tail appended) turned out to be 3.03.

B43: SNAP91 WT (peptide)
chain: FAQPMMRPPFGAAAVPGTQLSPSP
Consider B43, for which the protein stability index (parent: IOH52952_144, c terminus: a fixed tail appended) was determined as 3.08.

B44: HDAC6 WT (peptide)
chain: YVHHQALLDVKNIAHQNKFGEDMP
Turning to B44, under “parent: IOH53646_199, c terminus: a fixed tail appended”, the protein stability index is 2.

B45: KRT13 WT (peptide)
chain: TSSASVTTTSNASGRRTSDVRRP
On to B45, for which, where the note is “parent: IOH51951_76, c terminus: native”, the protein stability index was 2.45.

B46: SNAP91 WT (peptide)
chain: FGGSFMAPSPSPVTPAQNNLLQPN
Consider B46, for which the protein stability index (parent: IOH52952_113, c terminus: a fixed tail appended) amounted to 1.96.

B47: OR10K2 WT (peptide)
chain: SLARLQQLLFVIFLLLYLFTLGTN
With B47, the protein stability index (parent: IOH46300_4, c terminus: a fixed tail appended) is 2.15.

B48: ZBED2 WT (peptide)
chain: RAGHHPNQYATCRLCGRQVSRGPG
In the case of B48, the protein stability index (parent: IOH45853_12, c terminus: a fixed tail appended) is 2.02.

B49: KRT13 WT (peptide)
chain: TPGIDLTRVLAEMREQYEAMAERN
Regarding B49, the protein stability index (parent: IOH51951_45, c terminus: a fixed tail appended) amounted to 3.68.

B50: RAD54B WT (peptide)
chain: YVQEKRDGLKRRQQLEEELLRAKI
Turning to B50, where the note is “parent: IOH45968_20, c terminus: a fixed tail appended”, the protein stability index worked out at 1.89.

B51: SLC19A2 WT (peptide)
chain: IYPVWTYSYLVLLFPVFLATDYLR
Turning to B51, the protein stability index (parent: IOH52104_13, c terminus: a fixed tail appended) came out at 2.89.

B52: KRT13 WT (peptide)
chain: KTIEELRDKILTATIENNRVILEI
Turning to B52, the protein stability index (parent: IOH51951_27, c terminus: a fixed tail appended) amounted to 2.97.

B53: HDAC6 WT (peptide)
chain: QYMNEGELRVLADTYDSVYLHPNS
Turning to B53, the protein stability index (parent: IOH53646_27, c terminus: a fixed tail appended) was 1.87.
